“Also recorded” adds a separate entry of the source.
B1: miR-26a chimera: mouse c-Kit DNA aptamer-C3-passenger RNA, passenger RNA-TEG-cholesterol and miR-26a-5p guide strand annealed (SEQ ID NO:6/7, 8, 9) (nucleic acid)
chain 1: GCTCAACGCGGGACGGCTCTCCCATTGAC
chain 2: CCUAUUCUGG
chain 3: GUUACUUGCACG
guide: UUCAAGUAAUCCAGGAUAGGCU
modifications: chemistry not fully specified

Test system: TUBO cells
Assay: Growth and apoptosis of TUBO cells in vitro
Format: cell-based, mouse
Details: for percentage of apoptotic TUBO cells (Annexin V+): single agent
Procedure: FIG. 4A-FIG. 4J show how miR-26a chimera inhibits mouse breast cancer growth and protects from chemo-induced myelosuppression. FIG. 4A is a graph showing the binding of c-Kit-aptamer to TUBO cells. […] Cell count (left) and Annexin V^+ cells (%) (right) of the cells cultured with miR-26a chimera or the control (ctrl) were determined by flow cytometry. Asterisks denote the significant difference between ctrl chimera versus miR-26a chimera, and between ctrl chimera+5-FU versus miR-26a chimera+5FU. Data (mean±s.d.) were pooled from two experiments. FIG. 4C is a graph showing miR-26a expression in c-Kit^+ or c-Kit cells harvested from TUBO-derived tumors in BALB/c mice treated with miR-26a chimera (670 pmol/20 g) for 3 days. Data (mean+s.d.) were pooled from two experiments, involving a total of 6 mice per group. FIG. 4D is a graph showing Ezh2 expression in c-Kit^+ or c-Kit− cells harvested from TUBO-derived tumors in BALB/c mice treated with miR-26a chimera (670 pmol/20 g) for 3 days. Data (mean+s.d.) were pooled from two experiments, involving a total of 6 mice per group. FIG. 4E is a graph showing Bak1 expression in c-Kit^+ or c-Kit-cells harvested from TUBO-derived tumors in BALB/c mice treated with miR-26a chimera (670 pmol/20 g) for 3 days. Data (mean+s.d.) were pooled from two experiments, involving a total of 6 mice per group. FIG. 4F is a graph showing miR-26a expression in bone marrow (BM) detected by qPCR at 3 days after intravenous injection with the miR-26a chimera (670 pmol/20 g). Data (mean+s.d.) were pooled from two experiments, involving a total of 6 mice per group. FIG. 4G is a graph showing Bak expression in bone marrow (BM) detected by qPCR at 3 days after intravenous injection with the miR-26a chimera (670 pmol/20 g). Data (mean+s.d.) were pooled from two experiments, involving a total of 6 mice per group. FIG. 4H is a graph showing tumor volume over time. BALB/c mice bearing TUBO cells were treated with miR-26a chimera (670 pmol/20 g) (5 times, gray arrows) and 50 mg/kg 5-FU (3 times, dark grey arrows). Data (mean+s.d.) were pooled from two experiments, involving a total of 6 mice per group. There was significant difference between 5-FU only group versus miR-26a chimera only group (two way repeated-measures ANOVA followed by Bonferroni post-test for day0 to day18 (interaction p-value<0.001). FIG. 4I is a graph showing tumor volume over time after combinational treatment with 5-FU and chimeras. Data (mean+s.d.) were pooled from two experiments, involving a total of 6 mice per group. There was significant difference between 5-FU+ctrl chimera group versus 5-FU+miR-26a chimera group (two way repeated-measures ANOVA followed by Bonferroni post-test for day0 to day21, interaction p-value<0.0001). FIG. 4J is a graph showing the numbers of WBC and PLT in the tumor bearing mice 5 days after 5-FU treatment. Data (mean+s.d.) pooled from two experiments, involving a total of 6 mice per group. *P<0.05, **P<0.01.
A mouse TUBO breast cancer model was used to evaluate the therapeutic potential of miR-26a chimera for the myeloprotection and anti-tumor growth in breast cancer chemotherapy. Binding ability of an aptamer targeting mouse c-Kit to the TUBO cells was first tested by flow cytometry. […] To determine whether the mouse c-Kit-miR-26a chimera can inhibit the growth of mouse breast cancer cells in vitro, the TUBO cells were treated with increasing doses of miR-26a- or control-chimeras, and the viable cells counted under microscope at 2 days after the treatment.

Row | Molecule | reduction in tumor cell number (TUBO cells, 7 μM of 5-FU alone) | percentage of apoptotic TUBO cells (Annexin V+) | tumor cell number / effects, chimera in combination with 5-FU (TUBO cells, 5-FU 1 μg/ml (7 μM) plus chimera) | IC50 (TUBO cells, viable cells counted 2 days after treatment, chimera alone, read-out: IC50, reduction in tumor cell number) | TUBO cell growth (cell count) (chimera alone, increasing doses) | percentage of apoptotic TUBO cells, chimera in combination with 5-FU (combination)
1 | O=c1[nH]cc(F)c(=O)[nH]1 [5-FU, 5-fluorouracil, reference compound] | less than 20% | increased | – | – | – | –
2 | B1 | – | induced apoptosis; also recorded: increased | enhanced these effects; also recorded: synergistically reduced tumor cells | ~83 nM | suppressed the growth; also recorded: dose-dependent reduction | increased

Reference: patent US20200171068A1, “COMPOSITIONS COMPRISING APTAMERS AND NUCLEIC ACID PAYLOADS AND METHODS OF USING THE SAME” (Children's National Medical Center, priority 2017, published 2020)
